This is an account of results in paper PMC6849348, “Theranostic Application of a Novel G-Quadruplex-Forming DNA Aptamer Targeting Malate Synthase of Mycobacterium tuberculosis”.

Usually Ki stands for the dissociation constant of the complex between target and ligand, obtained from inhibition or displacement. As a reminder, the Kd is a measure of binding affinity in units of concentration. A word on the IC50: it is the concentration that inhibits the measured activity by half.

Series [1] deals with T1, malate synthase (MS, GlcB) (Mycobacterium tuberculosis, UniProt P9WK17 1-741). The experiment in a line: ALISA. The note with it: protein: recombinant; tags: C-terminal His6.
T1 sequence (P9WK17 whole entry): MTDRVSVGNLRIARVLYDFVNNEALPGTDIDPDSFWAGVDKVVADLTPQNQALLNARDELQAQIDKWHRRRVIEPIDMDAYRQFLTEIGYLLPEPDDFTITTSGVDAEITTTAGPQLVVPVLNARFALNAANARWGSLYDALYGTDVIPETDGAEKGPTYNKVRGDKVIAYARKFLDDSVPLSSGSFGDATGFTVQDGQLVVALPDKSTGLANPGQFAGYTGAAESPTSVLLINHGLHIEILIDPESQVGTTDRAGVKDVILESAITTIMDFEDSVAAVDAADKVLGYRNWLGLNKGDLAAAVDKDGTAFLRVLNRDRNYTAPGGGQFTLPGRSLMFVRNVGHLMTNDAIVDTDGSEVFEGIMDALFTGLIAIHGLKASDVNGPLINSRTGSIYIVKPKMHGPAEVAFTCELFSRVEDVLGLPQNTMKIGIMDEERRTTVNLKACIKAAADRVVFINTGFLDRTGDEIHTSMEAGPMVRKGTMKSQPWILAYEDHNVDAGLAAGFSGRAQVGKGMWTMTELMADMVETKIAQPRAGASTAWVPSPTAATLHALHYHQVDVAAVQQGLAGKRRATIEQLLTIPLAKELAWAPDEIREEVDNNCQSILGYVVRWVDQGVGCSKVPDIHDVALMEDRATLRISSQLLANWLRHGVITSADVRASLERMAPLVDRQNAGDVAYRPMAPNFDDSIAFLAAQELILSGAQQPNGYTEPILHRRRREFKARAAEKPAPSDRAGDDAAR
The target of series [2] is T1, malate synthase (MS, GlcB). Description: enzyme inhibition (mixed); glyoxylate, acetyl-CoA, 5 mM Mg2+. The note with it: protein: recombinant, tags: C-terminal His6.
Series [3] deals with T1, malate synthase (MS, GlcB). Description: SPR. The conditions noted are these: protein: recombinant, tags: C-terminal His6.
Series [4] concerns the target T1, malate synthase (MS, GlcB). Description: enzyme inhibition; glyoxylate, acetyl-CoA, 5 mM Mg2+. The conditions noted are these: protein: recombinant, tags: C-terminal His6.
The mark [5] stands for this setting: G4 parallel (CD, NMR), modeled as tetramer of 4 strands.

For the molecule GGGGTGGTGG (structured_DNA) [MS10-Trunc dT3], the binding result in series [1] is given as “binds”.
Regarding GGTGTGTTGACTGAGGGGGTGGGGTGGGTGGTGGTGGATATAGC (structured_DNA) [MS10], the Ki in series [2] (G4, parallel (CD)) came out at 270 nM. The Kd in series [3] (G4, parallel (CD)) is 12 nM. Also, the IC50 in series [4] (G4, parallel (CD)) came out at 276 nM.
For the molecule GGTGGTGGGG (structured_DNA) [MS10-Trunc dT9], the binding result in series [1] is recorded as “binds”.
With GGTGGTGGTGG (structured_DNA) [MS10-Trunc], in series [2] (setting [5]), the Ki was found to be 230 nM. The Kd in series [3] (setting [5]) turned out to be 0.019 nM. Moreover, the IC50 in series [4] (setting [5]) is 251 nM.
